Assay results as given in patent US9074002B2, “PTP1B inhibitors” (Cold Spring Harbor Laboratory, priority 2009, dated 2015).

Experiments:
[1] = biological target: T1, PTP1B under reducing condition (Homo sapiens, UniProt P18031); assay: In vitro binding assay, purified recombinant PTP1B (37 kDa) and purified scFv, Ni-NTA pull down, reducing condition; conditions: with 2 mM TCEP; FIG. 9
T1 construct: made in house; host or cells: E. coli BL21 (pET19b)
T1 sequence (P18031 3-277 limits assumed): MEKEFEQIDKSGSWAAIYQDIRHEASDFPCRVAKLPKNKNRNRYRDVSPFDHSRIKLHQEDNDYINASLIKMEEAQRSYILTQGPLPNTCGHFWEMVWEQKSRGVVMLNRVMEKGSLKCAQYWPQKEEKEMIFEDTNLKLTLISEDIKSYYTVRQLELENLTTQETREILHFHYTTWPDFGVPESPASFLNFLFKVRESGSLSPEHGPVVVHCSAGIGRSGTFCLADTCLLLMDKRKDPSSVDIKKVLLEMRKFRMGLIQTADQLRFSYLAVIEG
Method: (§1) They established conditions in which PTP1B is reversibly oxidized by H2O2 in solution (FIG. 8). An artificial protein substrate RCML, in which tyrosine was phosphorylated with ^32P using recombinant GST-FER kinase was used in this assay to measure the phosphatase activity. Recombinant PTP (37 kDa) was incubated with increasing concentration (50 μM to 100 mM) of H2O2. A quick buffer exchange was done to remove the H2O2 and reducing agent (TCEP) was added to reactivate the enzyme.
(§2) In the in vitro binding assay, purified PTP was reversibly oxidized with […] followed by a quick buffer exchange to remove H2O2 (FIG. 8). Purified scFv was incubated in molar excess with PTP1B-OX or with PTP under reducing condition (with 2 mM TCEP) in binding buffer (20 mM HEPES, pH 7.4, 300 mM NaCl, 0.05% BSA, 0.05% Tween-20 and 10 mM imidazole) for 2 hours at 4° C. Ni-NTA agarose was added and incubated for one hour at 4° C. Protein complex bound to Ni-NTA agarose beads was pulled down and washed (three times, 5 minutes each, at 4° C.) with binding buffer containing 20 mM imidazole to reduce non-specific binding to the beads. The protein complex was eluted from the Ni-NTA agarose beads with 500 mM imidazole (in binding buffer, pH 7.4) for 15 minutes at 4° C. with gentle shaking. The complex was separated by SDS-PAGE and PTP1B was detected with anti-PTP1B antibody (FG6) and scFv was detected with anti-HA antibody [anti-HA (3F10)-HRP, Roche] by immunoblotting. Eight different scFvs (scFvs 20, 21, 24, 28, 45, 48, 57, and 105), expressed and purified from bacterial cultures were tested by this in vitro binding experiment.

PTP1B-OX = biological target: T2, PTP1B-OX (Homo sapiens, UniProt P18031); assay: In vitro binding assay, purified recombinant PTP1B (37 kDa) and purified scFv, Ni-NTA pull down; conditions: purified proteins, scFv in molar excess, 2 hours at 4° C.; FIG. 9
T2 construct: made in house; host or cells: E. coli BL21 (pET19b)
T2 sequence (P18031 3-277): T1 sequence (P18031 3-277 limits assumed)
Method: as §1, §2

PTP1B (reduced, active) = biological target: T3, PTP1B (reduced, active) (Homo sapiens, UniProt P18031); assay: Direct effect of scFvs/antibodies on PTP1B phosphatase activity (32P-pTyr-RCML substrate); format: biochemical; conditions: 32P-labeled pTyr-RCML substrate, FIG. 1
T3 construct: made in house; host or cells: E. coli BL21 (pET19b)
T3 sequence (P18031 3-277 limits assumed): T1 sequence (P18031 3-277 limits assumed)
Method: Applicant's hypothesis was that scFvs that are able to bind to and stabilize the oxidized conformation of PTP1B in solution would inhibit reactivation by reducing agent, but have no direct inhibitory effect on phosphatase activity in assays in vitro. Activity was measured using ^32P-labeled pTyr-Reduced Carboxamidomethylated and Maleylated Lysozyme as substrate. Applicant established conditions in which wild type PTP1B could be reversibly oxidized in vitro. PTP1B was inactivated following addition of H2O2. […] Applicant validated this approach further, by testing the effects of expressing one of the scFvs (scFv45) as a single chain antibody fragment “intrabody” to PTP1B, using 293T cells as the expression system. This intrabody was expressed transiently and then tested for effects on insulin signaling, focusing initially on the tyrosine phosphorylation status of the beta-subunit of the insulin receptor and insulin receptor substrate (IRS-1).
Reduced carboxamidomethylated and maleylated lysozyme (RCML) was labeled with ^32P using recombinant GST-FER kinase to stoichiometries up to 0.8 (mol ^32P incorporated/mol of protein). This ^32P-Labeled phospho-tyrosyl RCML was used as the substrate in the in-solution phosphatase assay for screening the conformation sensor scFvs. Recombinant PTP1B was reversibly oxidized and transiently inactivated with H2O2 (5× molar excess of the protein). […] Purified bacterially expressed scFvs (100× molar excess of PTP1B) were incubated with PTP after H2O2 treatment and its removal and the effect of individual scFv on stabilizing the reversibly oxidized conformation was assessed by the phosphatase assay under reducing condition.
In order to screen the isolated scFvs for those that inhibit reactivation of PTP1B-OX by reducing agent, but have no direct inhibitory effect on phosphatase activity in assays in vitro, the effect of six scFvs (scFv20, scFv34, scFv45, scFv57, scFv64 and scFv106) on PTP1B activity was determined. PTP1B activity was measured using 32P-labeled pTyr-Reduced Carboxamidomethylated and Maleylated Lysozyme as substrate (FIGS. 1 and 2). Addition of the reducing agent TCEP alone had no substantial effect in PTP1B activity was assessed.

endogenous PTP1B-OX = biological target: T4, endogenous PTP1B-OX (Homo sapiens, UniProt P18031); assay: Intrabody interaction in 293T cells treated with H2O2 (Ni-NTA pull down / anti-PTP1B immunoprecipitation); format: cell-based; conditions: 1 mM H2O2 5 minutes, FIGS. 11, 12
T4 construct: endogenous in cells; host or cells: 293T cells (transfected only with the scFv intrabody)
T4 sequence (P18031 1-435): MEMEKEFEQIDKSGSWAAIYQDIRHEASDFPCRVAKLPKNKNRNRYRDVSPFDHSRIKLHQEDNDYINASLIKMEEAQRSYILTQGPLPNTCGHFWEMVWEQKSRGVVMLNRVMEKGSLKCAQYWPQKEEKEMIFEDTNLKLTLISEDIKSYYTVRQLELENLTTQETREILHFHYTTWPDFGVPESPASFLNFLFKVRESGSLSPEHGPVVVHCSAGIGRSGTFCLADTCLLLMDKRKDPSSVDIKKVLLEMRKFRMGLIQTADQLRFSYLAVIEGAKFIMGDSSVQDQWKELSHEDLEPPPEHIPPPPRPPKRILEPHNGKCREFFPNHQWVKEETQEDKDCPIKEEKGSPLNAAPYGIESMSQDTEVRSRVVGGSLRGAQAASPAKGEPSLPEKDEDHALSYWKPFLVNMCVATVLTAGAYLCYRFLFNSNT
Method: One of the positive candidate scFvs (scFv45) was cloned in pcDNA3.2/V5-GW/D-TOPO expression vector and transiently expressed in mammalian cells as stable intracellular antibody (aka intrabody) (FIG. 10). To detect PTP1B-OX and scFv45 interaction in mammalian cells, scFv45 was overexpressed in 293T cells as described herein (See Example 4) and 48 hours post transfection the cells were serum-starved for 16 hours in growth medium (DMEM, low glucose) without serum (FBS), then incubated with 1 mM H2O2 (in growth medium without serum) for 5 minutes at 37° C. or treated with 20 mM NAC (in growth medium without serum) for 1 hour at 37° C. Cells treated with H2O2 were washed twice with cold (4° C.) PBS and lysed in lysis buffer (25 mM HEPES, pH 7.4, 150 mM NaCl, 0.25% Deoxychloate, 1% TritonX-100, 25 mM NaF, 10 mM MgCl2, 1 mM EDTA, 10% Glycerol, 0.5 mM PMSF, 10 mM Benzamidine, protease inhibitor cocktail). Cells treated with NAC were lysed with lysis buffer containing 2 mM TCEP to ensure a post-lysis reducing environment. Interaction between PTP1B and intrabody45 were tested by pulling down the protein complex from 1 mg of total cell lysate with Ni-NTA agarose or by immunoprecipitating PTP with anti-PTP1B (FG6). For the pull down experiment, Ni-NTA agarose beads were incubated with the lysates (both oxidized and reduced) at 4° C. Protein complex bound to the Ni-NTA agarose beads was pulled down and washed three times; first with lysis buffer containing 20 mM imidazole followed by two more washes with wash buffer (PBS, pH 7.4, 20 mM imidazole, 0.05% BSA, 0.05% Tween-20 and protease inhibitors). Applicant used 20 mM imidazole in the wash buffer to reduce the non-specific binding of proteins with the Ni-NTA agarose beads. The complex was eluted with wash buffer containing 500 mM imidazole with gentle shaking at 4° C. and the eluate was mixed with SDS sample buffer with DTT. For the immunoprecipitation experiments, 1 mg of total cell lystates (both oxidized and reduced) was incubated with anti-PTP1B antibody (FG6) at 4° C. The interacting protein complex was immunoprecipitated after incubating the lysate-antibody mixture with protein A/G Sepharose at 4° C. After immunoprecipitation, Sepharose beads were washed three times; first with lysis buffer followed by two more washes with wash buffer (PBS, pH 7.4, 0.05% BSA, 0.05% Tween-20 and protease inhibitors). The Sepharose beads were then heated at 90° C. in 2×SDS sample buffer with DTT. Proteins from the pulled down or immunoprecipitated complex were separated by SDS-PAGE. PTP was detected with anti-PTP1B antibody (FG6) and the intrabodies were detected with anti-HA (3F10)-HRP antibody [anti-HA (3F10)-HRP, Roche] by immunoblotting.
In the initial in vitro phosphatase screening assay using reversibly oxidized (with H2O2) recombinant PTP1B, Applicant found four different PTP1B-OX specific scFvs (scFv45, scFv57, scFv64 and scFv106) from the initial pool of 12 different scFvs. […] Applicant has also shown that scFv45, expressed as an intrabody in mammalian cells, can bind to endogenous PTP1B-OX but not endogenous PTP under reducing conditions. Further assessment was carried out to identify additional PTP1B-OX-specific intrabodies. Additional scFvs have been subcloned in pcDNA3.2/V5-GW/D-TOPO mammalian expression vector (FIG. 10) from their respective phagemid constructs. After transient overexpression of these scFvs as intrabodies in 293T cells, the interaction between endogenous PTP1B and these intrabodies in both H2O2-treated cells and cells was observed under reducing condition (treated with NAC and lysed with lysis buffer containing TCEP). […] All can be used in the methods and compositions described herein. Additional scFvs, such as some or all of the 137 selected individual scFvs from the library, can be similarly tested by in vitro screening and/or by binding assay in mammalian cells.

B1: scFv24: scFv, SEQ ID NO: 57 (protein)
scFv: MKKTAIAIAVALAGFATVAQAAVSASPGDTVKITCSGGNSSYGYGWYQQKSPGSAPVSVIYYNDERPSDIPSRFSGSASGSTATLTITGVQADDEAVYYCGNADSSTYAGIFGAGTTLTVLGQSSRSSAVTLDESGGGLQTPGGGLSLVCKASGFDFSTNAMGWVRQAPGKGLEWVAGISGSGSSTWYATAVKGRATISRDNGQSTVRLQLNNLRAEDTGTYYCTKYVGDYYWYIDAGSIDAWGHGTEVIVSSTSGQAGQHHHHHHGAYPYDVPDYAS
binding to PTP1B under reducing condition in vitro [1]: no significant binding
binding to PTP1B-OX in vitro (PTP1B-OX): no significant binding

B2: scFv34: scFv, SEQ ID NO: 67 and 163 (protein)
scFv: MKKTAIAIAVALAGFATVAQAALTQPSSVSANPGGTVEITCSGSSGSHGWYQQKSPGSAPVTVIYDNTNRPSDIPSRFSGSLSGSTATLTITGVQAEDEAVYYCGSFDTNSDSGYVGIFGARTTLTVLGQSSRSSTETLDDSGGGLQTPGGALSLVCNASGFTFISYDMFWVRQAPGKGLEFVTQINSAGSYTNYGSAVNGRATISRNDGQITVRLQLNDLTADDTGIYFCAESASGYDYSGSDAGDINAWGHGTEVVVSSTSGQAGQHHHHHHGAYPYDVPDYAS
direct effect on PTP1B activity (PTP1B (reduced, active)): no direct inhibition of PTP activity
binding of intrabody to endogenous PTP1B-OX (endogenous PTP1B-OX): bound weakly to PTP1B-OX

B3: scFv105: scFv, SEQ ID NO: 132 (protein)
scFv: MKKTAIAIAVALAGFATVAQAALTQPSSVSANPGEAVKITCSGSSGSYGWYQQKSPGSAPVTVIYYNDKRPSDIPSRFSGSTSGSTSTLTITGVQAEDEAVYFCGGYDSNYLGIFGAGTTLTVLGQSSRSSAVTLDESGGGLQTPRGALSLVCKASGFTFSSYSMAWVRQAPGKGLEFVAGIQNDGSITDYGSAVDGRATISRDDGQSTVRLQLNNLRTEDTATYYCAKTTVADGVIGAYGIDAWGHGTEVIVSSTSGQAGQHHHHHHGAYPYDVPDYAS
binding to PTP1B under reducing condition in vitro [1]: no significant binding
binding to PTP1B-OX in vitro (PTP1B-OX): no significant binding

B4: scFv28: scFv, truncated sequence, SEQ ID NO: 61 (protein)
scFv: MKKTAIAIAVALAGFATVAQAAVIYSNDERPSDIPSRFSGSTSGSTSTLTITGVQADDEAVYFCGSADSSTYAGIFGAGTTLTVLGQSSRSSAVTLDESGGGLQTPGGALSLVCKASGFTFSSFNMFWVRQAPGRGLEFVAGITSSGGSTYYGTAVKGRATISRDNGQSTVRMQLNNLRAEDTGTYFCARGAYDYYFYWNYAGTIDAWGHGTEVIVSSTSGQAGQHHHHHHGAYPYDVPDYAS
binding to PTP1B under reducing condition in vitro [1]: no significant binding
binding to PTP1B-OX in vitro (PTP1B-OX): no significant binding

B5: scFv21: scFv, SEQ ID NO: 54 (protein)
scFv: MKKTAIAIAVALAGFATVAQAALTQPSSVSANPGGTVKITCSGSSGSYYGWYQQKSPGSAPVTVIYDNDKRPSDVPSRFSGSKSGPTATLTITGVQAEDEAVYFCGSRDNSYVGIFGAGTTLTVLGQSSRSSAVTLDESGGGLQTPGGALSLVCKASGFTFSSYDMFWVRQAPGKGLEFVAQINSAGSYTNYGSAVKGRATISRDDGQSTVRLQLNNLRAEDTGIYFCAKSASGYYYSGSDAGDIDAWGHGTEVIVSSTSGQAGQHHHHHHGAYPYDVPDYAS
binding to PTP1B under reducing condition in vitro [1]: no significant binding
binding to PTP1B-OX in vitro (PTP1B-OX): no significant binding
